Legend:
human CCR5 = molecular target: T1, human CCR5 (human, UniProt P51681 1-352); assay: told from CCR5 internalization on CD4+ and CD8+ T cells of human PBMC (FACS)
T1 construct: whole, on cells; also called CCR5 receptor
Method: (§1) RM and MR induced internalization of CCR5 on T cells is shown in FIGS. 7A and 7B, respectively. Human PBMC were incubated for 30 min at 37° C. with various concentrations of RM (FIG. 7A), MR (FIG. 7B) and RANTES and stained on ice for 1 h with a combination of directly conjugated antibodies against CCR5, CD8 and CD4. Mean channel fluorescence (MCF) of CCR5 was quantified on CD4 and CD8 positive T cells by FACS-analysis. Relative surface expression of CCR5 was calculated as [MCF(exp.)-MCF(negative control)]/[(MCF(medium)-MCF(negative control).
as §1, with “Human” for “RM and MR induced internalization of CCR5 on T cells is shown in FIGS. 7A and 7B, respectively. Human”, “RANTES. Cells were then” for “RANTES and”, “CD4 (CCR5-PE, Pharmingen, CD8-Cychrome, Immunotech and CD4-APC, Immunotech). CD4+ and CD8+ T cells were identified by expression of CD4 and CD8 as well as by their light scatter properties.” for “CD4.”

CD4 on human T cells [1] = molecular target: T2, CD4 on human T cells (human, UniProt P01730 26-458); assay: FACS on PBMC, 1 h on ice, detected with anti-6xHis or anti-RANTES (VL-1) antibody
T2 construct: whole, on cells
Method: (§2) PBMC were incubated for 1 h on ice with the constructs RM and MR in various concentrations. After washing with PBS, cell bound constructs were detected with an antibody against 6×His (Dianova) or an antibody against RANTES (VL-1) followed by incubation with PE-labelled rabbit-anti-mouse F(ab) fragments (Dako R439). Binding of RM and MR to CD4 on T cells was detected by FACS analysis (FIG. 6A).

CD4 on human T cells [2] = molecular target: T2, CD4 on human T cells; assay: FACS on PBMC
Method: as §2

T1 sequence (P51681 whole entry): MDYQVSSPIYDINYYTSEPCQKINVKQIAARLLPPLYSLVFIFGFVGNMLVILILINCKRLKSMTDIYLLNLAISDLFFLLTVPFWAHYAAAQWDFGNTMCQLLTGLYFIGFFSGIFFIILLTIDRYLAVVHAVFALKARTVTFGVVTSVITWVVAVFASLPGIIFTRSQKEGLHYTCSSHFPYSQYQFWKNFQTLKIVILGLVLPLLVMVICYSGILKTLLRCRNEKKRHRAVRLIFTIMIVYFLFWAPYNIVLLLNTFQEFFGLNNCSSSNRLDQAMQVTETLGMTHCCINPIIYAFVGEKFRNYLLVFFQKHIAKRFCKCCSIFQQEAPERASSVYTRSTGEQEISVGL

B1: MR construct ((VL) anti-CD4-linker-(VH) anti-CD4-linker-RANTES) (other)
chain: DYKDDDDKDIVLTQSPASLAVSLGQRATISCKASQSVDYDGDSYMNWYQQKSGQPPKLLIYAASNLESGIPARFSGSGSGTDFTLNIHPVEEEDAATYYCQQSIQDPCTFGGGTELEIKGGGGSGGGGSGGGGSQVQLQQSGPELVKPGASVKMSCKASGYTFTDYVINWVKQRTGQGLEWIGEIYPGSGSDYYNENLKDKATLTADKSSNTAYMQLSSLTSEDSAVYFCARKGENGNSLAFAYWGQGTLVTVSAGGGGSGGGGSSPYSSDTTPCCFAYIARPLPRAHIKEYFYTSGKCSNPAVVFVTRKNRQVCANPEKKWVREYINSLQMSHHHHHH
notes: Expressed in the periplasm of E. coli and also in CHO cells; also called antiCD4-RANTES
binding result (human CCR5): binds | binding result (CD4 on human T cells [1]): binds

B2: RM construct (RANTES-linker-(VH) anti-CD4-linker-(VL) anti-CD4) (other)
chain: SPYSSDTTPCCFAYIARPLPRAHIKEYFYTSGKCSNPAVVFVTRKNRQVCANPEKKWVREYINSLQMSSGGGGSGGGGSDIQLQQSGPELVKPGASVKMSCKASGYTFTDYVINWVKQRTGQGLEWIGEIYPGSGSDYYNENLKDKATLTADKSSNTAYMQLSSLTSEDSAVYFCARKGENGNSLAFAYWGQGTLVTVSAGGGGSGGGGSGGGGDIVLTQSPASLAVSLGQRATISCKASQSVDYDGDSYMNWYQQKSGQPPKLLIYAASNLESGIPARFSGSGSGTDFTLNIHPVEEEDAATYYCQQSIQDPCTFGGGTELEIKHHHHHH
notes: also called RANTES-antiCD4; RANTES-anti-CD4
binding result (CD4 on human T cells [2]): binds | binding result (human CCR5): binds
